# Source: publication PMC10681739, “High-throughput data and modeling reveal insights into the mechanisms of cooperative DNA-binding by transcription factor proteins”
# B1: Table S3 B row 2332 (dsDNA)
# DNA 1: TGTCAAAGTTTGTGGTGAGTGGCTTGCTGGAGACCC
# DNA 2: GGGTCTCCAGCAAGCCACTCACCACAAACTTTGACA
# B2: Table S3 B row 2387 (dsDNA)
# DNA 1: CATTTCTGTTGCGGTTGGCAGCGTCTCCATCCACGG
# DNA 2: CCGTGGATGGAGACGCTGCCAACCGCAACAGAAATG
# B3: Table S3 B row 2442 (dsDNA)
# DNA 1: GTGAAAAAGTCTGTGGTTTTGTTTCTTGAACACCTG
# DNA 2: CAGGTGTTCAAGAAACAAAACCACAGACTTTTTCAC
# B4: Table S3 B row 531 (dsDNA)
# DNA 1: ATAGCTTGTGGTTTATGGGTCAGCAAGTTGAGGGTG
# DNA 2: CACCCTCAACTTGCTGACCCATAAACCACAAGCTAT
# B5: Table S3 B row 3051 (dsDNA)
# DNA 1: GGCTTGTGGTTTGGTGATTGTACGTCCTTATTGATA
# DNA 2: TATCAATAAGGACGTACAATCACCAAACCACAAGCC
# B6: Table S3 B row 1550 (dsDNA)
# DNA 1: TGACCTTTGTGGTTTGGTCAGCAAGTGGGGTACTGG
# DNA 2: CCAGTACCCCACTTGCTGACCAAACCACAAAGGTCA
# B7: Table S3 B row 158 (dsDNA)
# DNA 1: GTCTCAACCGCAAGGAGGTGTTACGTCCTCTTTTAC
# DNA 2: GTAAAAGAGGACGTAACACCTCCTTGCGGTTGAGAC
# B8: Table S3 B row 2269 (dsDNA)
# DNA 1: ACTGTTATTGTGGTTTTTGGGGACTGCCTCTTTGTC
# DNA 2: GACAAAGAGGCAGTCCCCAAAAACCACAATAACAGT
# B9: Table S3 B row 741 (dsDNA)
# DNA 1: CTTAAAACCACAACACAATAACACCAGAGGACATGA
# DNA 2: TCATGTCCTCTGGTGTTATTGTGTTGTGGTTTTAAG
# B10: Table S3 B row 1277 (dsDNA)
# DNA 1: GGGGTGCGGTTTAGGGCGGGTTTTTTGCGCCTTGGA
# DNA 2: TCCAAGGCGCAAAAAACCCGCCCTAAACCGCACCCC
# B11: Table S3 B row 2138 (dsDNA)
# DNA 1: TGTGAAACCGCAGGGGTTCAGGGAGGCAGTGTAAGC
# DNA 2: GCTTACACTGCCTCCCTGAACCCCTGCGGTTTCACA
# B12: Table S3 B row 378 (dsDNA)
# DNA 1: GCCTGCGGTTTGGGTGCTGTGACCGTACGGGGGCGG
# DNA 2: CCGCCCCCGTACGGTCACAGCACCCAAACCGCAGGC
# B13: Table S3 B row 71 (dsDNA)
# DNA 1: CCTTTGTTGTGGTTTTTGCAGAAAGAGAAGGGTTAG
# DNA 2: CTAACCCTTCTCTTTCTGCAAAAACCACAACAAAGG
# B14: Table S3 B row 2123 (dsDNA)
# DNA 1: CTCTGAACGTCCTCTCTTTTAACCACAACTTACTAC
# DNA 2: GTAGTAAGTTGTGGTTAAAAGAGAGGACGTTCAGAG
# B15: Table S3 B row 226 (dsDNA)
# DNA 1: TTTCTTTCTGTGGTTTATCCTTATTTGCTGGCTTCG
# DNA 2: CGAAGCCAGCAAATAAGGATAAACCACAGAAAGAAA
# B16: Table S3 B row 2418 (dsDNA)
# DNA 1: TTCTCTGCACTGCGGTTTACTCAGAAAGAAGACAAC
# DNA 2: GTTGTCTTCTTTCTGAGTAAACCGCAGTGCAGAGAA
# B17: Table S3 B row 2012 (dsDNA)
# DNA 1: TTTTTGTGTTTTTGTGGTTTCTTCCGATCTTAGTCA
# DNA 2: TGACTAAGATCGGAAGAAACCACAAAAACACAAAAA
# B18: Table S3 B row 1694 (dsDNA)
# DNA 1: CTGCAAACCACAAAACACCTGACTGCTACGTAAGAT
# DNA 2: ATCTTACGTAGCAGTCAGGTGTTTTGTGGTTTGCAG
# Biological target: RUNX1 (Homo sapiens, UniProt Q01196)
# Experiment: gcPBM; 2 nM RUNX1
# Conditions: tags: N-terminal GST (pDEST15), kept (PMC6008103); label: surface-attached array probe
# Sequence of RUNX1 (Q01196 whole entry): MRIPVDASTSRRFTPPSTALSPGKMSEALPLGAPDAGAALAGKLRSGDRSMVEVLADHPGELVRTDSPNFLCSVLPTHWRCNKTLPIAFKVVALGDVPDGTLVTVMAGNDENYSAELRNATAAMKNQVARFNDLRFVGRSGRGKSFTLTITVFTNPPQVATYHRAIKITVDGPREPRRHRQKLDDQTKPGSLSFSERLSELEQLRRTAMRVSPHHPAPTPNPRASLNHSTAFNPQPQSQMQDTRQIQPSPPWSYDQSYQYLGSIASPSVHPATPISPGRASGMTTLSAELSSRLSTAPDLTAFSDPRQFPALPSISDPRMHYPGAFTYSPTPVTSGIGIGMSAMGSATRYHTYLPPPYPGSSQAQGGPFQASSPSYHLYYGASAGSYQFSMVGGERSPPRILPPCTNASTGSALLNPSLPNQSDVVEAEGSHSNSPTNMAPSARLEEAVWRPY
row,Binder,binding signal
1,B1,"13400 PBM fluorescence, median of replicate spots"
2,B2,"12200 PBM fluorescence, median of replicate spots"
3,B3,"9320 PBM fluorescence, median of replicate spots"
4,B4,"13900 PBM fluorescence, median of replicate spots"
5,B5,"13000 PBM fluorescence, median of replicate spots"
6,B6,"9070 PBM fluorescence, median of replicate spots"
7,B7,"12800 PBM fluorescence, median of replicate spots"
8,B8,"12500 PBM fluorescence, median of replicate spots"
9,B9,"14300 PBM fluorescence, median of replicate spots"
10,B10,"12400 PBM fluorescence, median of replicate spots"
11,B11,"11000 PBM fluorescence, median of replicate spots"
12,B12,"10500 PBM fluorescence, median of replicate spots"
13,B13,"10300 PBM fluorescence, median of replicate spots"
14,B14,"10800 PBM fluorescence, median of replicate spots"
15,B15,"12500 PBM fluorescence, median of replicate spots"
16,B16,"10900 PBM fluorescence, median of replicate spots"
17,B17,"9430 PBM fluorescence, median of replicate spots"
18,B18,"9300 PBM fluorescence, median of replicate spots"
